The values that follow come from publication PMC12095048 (Oncogene, 2025).

Test [1] deals with His-CHK2 (WT), full length (UniProt O96017 1-543). Briefly: pull-down.
In test [2] the target is His-HIF-1α (WT), full length (UniProt Q16665 1-826). The experiment in a line: pull-down.
Chain of His-HIF-1α (WT), full length (Q16665 whole entry): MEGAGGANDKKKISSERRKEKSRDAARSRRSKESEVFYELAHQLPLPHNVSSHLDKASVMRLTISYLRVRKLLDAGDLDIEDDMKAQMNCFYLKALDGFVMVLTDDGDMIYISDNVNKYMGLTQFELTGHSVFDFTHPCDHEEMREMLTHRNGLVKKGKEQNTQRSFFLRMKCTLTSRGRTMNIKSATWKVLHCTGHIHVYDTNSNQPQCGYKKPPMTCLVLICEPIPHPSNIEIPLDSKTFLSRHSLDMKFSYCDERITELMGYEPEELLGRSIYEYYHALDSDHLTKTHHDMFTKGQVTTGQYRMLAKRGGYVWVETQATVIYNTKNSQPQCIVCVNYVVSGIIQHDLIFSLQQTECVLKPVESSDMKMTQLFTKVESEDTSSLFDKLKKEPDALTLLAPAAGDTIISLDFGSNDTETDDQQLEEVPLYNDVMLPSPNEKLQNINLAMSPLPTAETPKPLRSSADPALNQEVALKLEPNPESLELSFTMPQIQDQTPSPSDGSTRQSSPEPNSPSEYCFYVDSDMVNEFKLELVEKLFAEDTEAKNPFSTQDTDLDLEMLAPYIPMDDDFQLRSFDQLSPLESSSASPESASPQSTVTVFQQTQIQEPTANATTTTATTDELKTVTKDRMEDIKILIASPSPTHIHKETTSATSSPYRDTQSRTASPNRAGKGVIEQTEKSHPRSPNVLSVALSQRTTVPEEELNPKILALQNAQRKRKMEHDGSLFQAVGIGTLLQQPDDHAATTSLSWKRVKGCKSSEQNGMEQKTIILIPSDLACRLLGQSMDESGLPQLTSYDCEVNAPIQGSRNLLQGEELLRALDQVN

B1: GST-HIF-1α (aa 400–575) (domain or fragment, UniProt Q16665 400-575, looked up)
chain: LAPAAGDTIISLDFGSNDTETDDQQLEEVPLYNDVMLPSPNEKLQNINLAMSPLPTAETPKPLRSSADPALNQEVALKLEPNPESLELSFTMPQIQDQTPSPSDGSTRQSSPEPNSPSEYCFYVDSDMVNEFKLELVEKLFAEDTEAKNPFSTQDTDLDLEMLAPYIPMDDDFQLR
In the case of B1, in test [1], the binding result is “binds”.

B2: GST-HIF-1α (aa 81–200) (domain or fragment)
chain: not shown
Turning to B2, the binding result in test [1] is on record as “binds”.

B3: GST-CHK2 (aa 1–193) (domain or fragment, UniProt O96017 1-193, looked up)
chain: MSRESDVEAQQSHGSSACSQPHGSVTQSQGSSSQSQGISSSSTSTMPNSSQSSHSSSGTLSSLETVSTQELYSIPEDQEPEDQEPEEPTPAPWARLWALQDGFANLECVNDNYWFGRDKSCEYCFDEPLLKRTDKYRTYSKKHFRIFREVGPKNSYIAYIEDHSGNGTFVNTELVGKGKRRPLNNNSEIALSL
Consider B3, for which the binding result in test [2] is “binds”.
